The target of one assay is T1, BTN1A1 Peptide 4 (human).
T1 construct: also called BTN1A1-pep4- WT; Pep4
T1 peptide: EVEVGDRTDWAIGVC
The experiment in a line: ELISA clone screen, GenScript. For orientation: ELISA stands for enzyme-linked immunosorbent assay.

The target of another assay is T2, hBTN1A1 ICD (human, UniProt Q13410 270-526).
T2 sequence: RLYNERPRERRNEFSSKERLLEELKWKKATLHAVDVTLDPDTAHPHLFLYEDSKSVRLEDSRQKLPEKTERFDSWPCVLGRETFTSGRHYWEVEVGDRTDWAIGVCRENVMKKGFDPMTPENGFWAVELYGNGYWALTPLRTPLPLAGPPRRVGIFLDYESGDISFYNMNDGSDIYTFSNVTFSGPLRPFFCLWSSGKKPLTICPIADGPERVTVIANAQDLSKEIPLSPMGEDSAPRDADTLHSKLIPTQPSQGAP
Briefly: ELISA clone screen, GenScript.

The next assay has as its target T3, denatured hBTN1A1 ICD (human, UniProt Q13410 270-526).
T3 construct: Same protein as hBTN1A1 ICD, denatured before the ELISA; also called hBTN1A1 ICD denatured; Denatured ICD
T3 sequence: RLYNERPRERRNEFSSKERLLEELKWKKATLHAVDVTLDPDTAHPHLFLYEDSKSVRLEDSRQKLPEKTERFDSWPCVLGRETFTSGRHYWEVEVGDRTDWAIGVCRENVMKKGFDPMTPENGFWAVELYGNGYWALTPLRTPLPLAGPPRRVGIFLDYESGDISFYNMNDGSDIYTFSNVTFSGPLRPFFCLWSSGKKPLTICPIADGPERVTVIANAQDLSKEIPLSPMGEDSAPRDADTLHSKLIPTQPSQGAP
The experiment in a line: ELISA clone screen, GenScript.

Assay [1] deals with TRIM variant expressed by HEK293T cells. The experiment in a line: western blot, STC43H11-1 band over Flag band.
Assay [2] deals with peptide 4 WT expressed by HEK293T cells (human). Briefly: western blot, STC43H11-1 band over Flag band. In general terms: A western blot detects proteins with antibodies after separation by electrophoresis.
Assay [3] concerns the target peptide 4 variant A371G expressed by HEK293T cells (human). Briefly: western blot, STC43H11-1 band over Flag band.
The target in assay [4] is peptide 4 variant C375A expressed by HEK293T cells (human). Briefly: western blot, STC43H11-1 band over Flag band.
Assay [5] has as its target peptide 4 variant D366A expressed by HEK293T cells (human). The experiment in a line: western blot, STC43H11-1 band over Flag band.
Assay [6] deals with peptide 4 variant D369A expressed by HEK293T cells (human). The experiment in a line: western blot, STC43H11-1 band over Flag band.
For assay [7], the target named is peptide 4 variant E361A expressed by HEK293T cells (human). The experiment in a line: western blot, STC43H11-1 band over Flag band.
For assay [8], the target named is peptide 4 variant E363A expressed by HEK293T cells (human). Briefly: western blot, STC43H11-1 band over Flag band.
For assay [9], the target named is peptide 4 variant G365A expressed by HEK293T cells (human). Briefly: western blot, STC43H11-1 band over Flag band.
Assay [10] deals with peptide 4 variant G373A expressed by HEK293T cells (human). The experiment in a line: western blot, STC43H11-1 band over Flag band.
Assay [11] deals with peptide 4 variant I372A expressed by HEK293T cells (human). The experiment in a line: western blot, STC43H11-1 band over Flag band.
Assay [12] has as its target peptide 4 variant R367A expressed by HEK293T cells (human). Briefly: western blot, STC43H11-1 band over Flag band.
Assay [13] concerns the target peptide 4 variant T368A expressed by HEK293T cells (human). The experiment in a line: western blot, STC43H11-1 band over Flag band.
The target in assay [14] is peptide 4 variant V362A expressed by HEK293T cells (human). The experiment in a line: western blot, STC43H11-1 band over Flag band.
Assay [15] addresses peptide 4 variant V364A expressed by HEK293T cells (human). Briefly: western blot, STC43H11-1 band over Flag band.
The target of assay [16] is peptide 4 variant V374A expressed by HEK293T cells (human). The experiment in a line: western blot, STC43H11-1 band over Flag band.
Assay [17] concerns the target peptide 4 variant W370A expressed by HEK293T cells (human). The experiment in a line: western blot, STC43H11-1 band over Flag band.

B1: STC43H11-1 (antibody, V domains shown)
VH: QSLEESGGRLVTPGGSLTLTCTVSGIDLSSYAMGWVRQAPGEGLEWIGSIGTGGGTGYASWAKGRFTISKTSTTVDLKMTSLTASDTATYFCATSNLWGPGTLVTVSS
VL: QVLTQTASPVSAAVGGTVTINCQASQSVYNNNRCSWFQQKPGQPPKRLIYHTSTLDSGVPSRFKGSGSGTQFTLTISDVQCDDAATYYCLGNYDCSRADCAAFGGGTEVVVK
notes: From immunized New Zealand rabbits; IgG heavy chain and Kappa light chain; also called clone #43H11; Clone 43H11
In the case of B1, the ELISA signal came to 0.609 with BTN1A1 Peptide 4, 1.6 with hBTN1A1 ICD and 2.27 with denatured hBTN1A1 ICD. The Normalized Fold in [1] is -0.00102; in assay [2], 0.478; in assay [3] it was 0.045; in assay [4] it was 1.32; in [5] it was -0.0409; in [6] it was 0.000853. The Normalized Fold in [7] was determined as 0.231; in assay [8], 0.323; in assay [9], 0.414; in [10], 0.0107; in assay [11], 0.000608; in assay [12], 0.239. Moreover, the Normalized Fold in assay [13] is 0.0496; in [14] it was 1.18; in assay [15] it was 0.128; in [16], 0.237; in [17] it was 0.0394.
